Source: paper PMC9483561
pKd: −log10 of the molar value.

Target: integrin α5β1 headpiece (α5 F1–L609/β1 Q1–E481) (UniProt P05556)
Assay: fluorescence polarisation

Row | Substance | pKd
1 | fibronectin fragment Fn9–10 (G1326–T1509) (from UniProt P02751-1 1357-1540) (domain or fragment) | 7.52
2 | fibronectin fragment Fn7–10 (P1142–T1509) (from UniProt P02751-1 1173-1540) (domain or fragment) | 7.52
